# Assay results taken from patent US20190330665A1.
# Molecular target: T7 RNA polymerase (UniProt P00573)
# Test: cell-based or functional assay
substance,measurement,value
catalytically-deactivated variant of T7 lysozyme (LysY) (from UniProt P00806 2-151),"decrease in basal mNeonGreen expression in exponential phase (PT7:mNeonGreen reporter, PurtA:T7pol biosensor strain)",78%
